This note sets out measurements from publication PMC4184891, “Involvement of the Iron Regulatory Protein from Eisenia andrei Earthworms in the Regulation of Cellular Iron Homeostasis”.

Data set [1] concerns the target T1, rEaIRP (iron regulatory protein) (Eisenia andrei, UniProt I1VH49 1-890).
T1 sequence: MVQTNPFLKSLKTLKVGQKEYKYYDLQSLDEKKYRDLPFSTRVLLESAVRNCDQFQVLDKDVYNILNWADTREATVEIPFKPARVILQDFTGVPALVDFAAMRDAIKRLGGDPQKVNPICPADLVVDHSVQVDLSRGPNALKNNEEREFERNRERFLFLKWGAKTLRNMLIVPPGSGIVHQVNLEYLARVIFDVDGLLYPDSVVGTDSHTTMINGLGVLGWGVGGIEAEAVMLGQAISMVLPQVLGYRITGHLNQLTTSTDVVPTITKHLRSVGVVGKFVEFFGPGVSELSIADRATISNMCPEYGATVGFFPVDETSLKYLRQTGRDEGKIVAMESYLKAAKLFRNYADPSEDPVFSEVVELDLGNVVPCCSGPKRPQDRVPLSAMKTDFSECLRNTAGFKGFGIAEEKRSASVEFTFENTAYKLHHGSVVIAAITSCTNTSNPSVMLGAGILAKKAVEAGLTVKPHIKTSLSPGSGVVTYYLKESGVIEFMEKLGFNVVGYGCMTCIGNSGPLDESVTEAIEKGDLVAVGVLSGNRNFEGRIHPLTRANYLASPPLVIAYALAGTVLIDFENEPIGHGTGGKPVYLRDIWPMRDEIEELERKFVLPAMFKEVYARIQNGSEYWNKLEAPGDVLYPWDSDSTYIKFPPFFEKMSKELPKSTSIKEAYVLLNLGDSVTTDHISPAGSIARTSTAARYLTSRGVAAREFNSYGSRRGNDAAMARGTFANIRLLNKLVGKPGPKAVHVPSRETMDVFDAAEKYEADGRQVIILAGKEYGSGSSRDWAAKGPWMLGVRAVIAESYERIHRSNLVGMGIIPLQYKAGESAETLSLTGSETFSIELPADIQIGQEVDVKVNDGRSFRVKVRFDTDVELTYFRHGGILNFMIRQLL
Nature of the data set: EMSA; 6 nM RNA, 50 nM protein, tRNA; reduced by 200-fold unlabeled MAMconsIRE; LightShift RNA EMSA kit binding buffer (composition not given), 5% glycerol, 2 ug tRNA, 20 ul, 30 min room temperature; rEaIRP reduced with 1 mM 2-mercaptoethanol; 6% native PAGE in 0.5X TBE; pH and salt not given; liver extract lanes left out (protein not identified). The following applies: protein: recombinant; tags: N-terminal 6xHis (pRSET B); label: biotin; hairpin with bulged C. (Mobility shift assays separate free from complexed probe on a gel.)

The target of data set [2] is T1, rEaIRP (iron regulatory protein). As to the kind of experiment: EMSA; 6 nM RNA, 5-150 nM protein, tRNA; complex visible at 20 nM, distinct at 50 nM; low affinity; competed by unlabeled EAconsIRE; LightShift RNA EMSA kit binding buffer (composition not given), 5% glycerol, 2 ug tRNA, 20 ul, 30 min room temperature; rEaIRP reduced with 1 mM 2-mercaptoethanol; 6% native PAGE in 0.5X TBE; pH and salt not given; liver extract lanes left out (protein not identified). The following applies: protein: recombinant; tags: N-terminal 6xHis (pRSET B); label: biotin; hairpin; optimal fold has unpaired U one nt closer to the loop instead of bulged C.

On to GGGUUUCCUGCUUCAACAGUGCUUGGACGGAACCC (structured_RNA, Bio-11-UTP incorporated in transcription (probe)) [MAMconsIRE], for which the binding result in data set [1] is recorded as “binds”.
For GGGUGCUUUGCUGCGUCAGUGUGCGUGCGAGCUAA (structured_RNA, Bio-11-UTP incorporated in transcription (probe)) [EAconsIRE], in data set [2], the binding result is “binds”.
